Laboratory results from patent EP0833843B1.

Target: MC1-R (melanocyte-stimulating hormone receptor)
Test: inhibition of MC1-R activation by the purified recombinant ASP preparation; assay details not given (Ollmann et al., in preparation)

Ki: 0.22 nM
Substance: Recombinant mouse agouti signal protein (ASP) (ligand)
